Experimental data reported in the DeepSol protein solubility set.

Experiment: soluble on expression in E. coli; label from the status in PepcDB or PDB records

Sequence	soluble on expression in E. coli
MMAKKPPKPAPRRIFQERLKITALPLYFEGFLLIKRSGYREYEHYWTELRGTTLFFYTDKKSIIYVDKLDIVDLTCLTEQNSTEKNCAKFTLVLPKEEVQLKTENTESGEEWRGFILTVTELSVPQNVSLLPGQVIKLHEVLEREKKRRIETEQSTSVEKEKEPTEDYVDVLNPMPACFYTVSRKEATEMLQKNPSLGNMILRPGSDSRNYSITIRQEIDIPRIKHYKVMSVGQNYTIELEKPVTLPNLFSVIDYFVKETRGNLRPFICSTDENTGQEPSMEGRSEKLKKNPHIA	soluble
MMARVTPDQALISFRNARILWAGHSESRKAVEQQIESLLTAMEKPADYARQLELQREHLDVLKWQINCAARECIYSQHQLMEACTEDALSNFMQANGAALTSALAPFLKGRGGVDVASRILRNALVRQLAITPPEIAGDYRMILDESGVMPDPMMVRDCQSSYTPAQQLRFQQRLDYINGMQE	soluble
MMDESLCGGLPPEICEQLSVEEQIIKIRLEKRRFGREVTIIEGINEKEFNLKKLASTLKSRLATGGTAKNGRIELQGDHRHRVKKILVELGFPEENITIID	soluble
MMEKPEGLKLIDENGRRIDGRKKYELRPIKMKVGVLKNANGSAYIEWGRNKIIAAVYGPRELHSKHLQRPDRAILRVRYNMAPFSVEERKKPGPDRRSIEISKVIKGALEPALILEMFPRTSIDVFIEVLQADAGTRVAGITAASLALADAGIPMRDLVAACAAGKIEGEIVLDLNKEEDNYGEADVPVAIMPLKNDITLLQMDGYLTKEEFIEAVRLAIKGAKAVYQKQREALKEKYLKIAQEVEESE	soluble
MMGVKAEALTGGFSSAVFDSQRIFKKLMDGMARPGTPQTIETAVAPPLPLAAATGAVLLALCDHDTPVWLNGALRKTAVPGWIGFHTGAPATEEKGAAHFAVIEAGSAIASFGLFAQGSQEYPDRSTTLIIELSDLDGGRELLLSGPGIRHVNIISPSGLPDIFPMLWAENNAIFPRGVDVILTAGDKFVCLPRTTRIKPVEA	not soluble
MMIENLLIELLTEELPPKSLDKLGNAFAAVIADSLKSQNLTTPDTILTAFASPRRLAVHLTAIPAQAPDQVVALKLMPITVGLDAQGQPTPALHKKLAALGMENVDASALKRVQESKAEMLFLEQNVTGILLAAGLQKAMEDAIRQLPVSKVMTYQLDDGWENVHFVRPVHGLIALHGQKIIPVSAFGLTAGNTTRGHRFEVKQTELIIDHADRYASLLETEGAVIPGFDRRRSWIREGLEAAASAVQLRCISDEVLLDEVTALVEYPNILMGAFPTDFLEVPQECLISTMKINQKYFPLLDTDGKLTNQFLIVANITPADPGQIISGNERVIRSRLADAKFFFDHDRKRTLASRLPDLDKVIYHHQLGSQGERTRYVQTLARIIGRLLGDDNLAGQADQAAMLAKADLLTDMVGEFPELQGIMGRYYARFEGMDETIAFAIEDHYKPRFAGDVLPRSMAGICVALADKLETLISLFSIGQLPTGDKDPYALRRHALGVIRILIEKNLPIGLDVLISRAADVLQDEMIGKQDSGPGHARPVTPQLVGQLQDFFYDRLAASLRDQGYTAQEVEAVLNLRPSL	not soluble
MMKEMTVQQMTEKVLNKESLFILDVRNESDFRDWKIEGENFAYLNVPYFELVHGVDSIVDRLPKDQDIVVVCAKGGSAAFVAEQLAEAGFDNVYTLAGGMQAWSEHLHQAKVYEDDQLKIYQFIRVGKGCLSYMVLSGDEALVVDPLRFIDVYEQVAQQEGVTITHIVDSHLHADHLSGGKALAERTGAAYYLMKSEGAVFDFEPLEQHETIDFENVHLEVLAVKTPGHTPGSVSFFVNGKWLFSGDTIFVGGLGRPDLGGKVAEWAEDLYHTVYEKVAAMADDVIVLPAHYANLDEEINAEGYVGDTLGRIRARNEMMQNKAKDEFIDLVIQGAKTETPPNFEDIVAINRGLKTVDIETQRELEIGPLEHHHHHH	soluble
MMKKTPTSTKDSLPNKEMNDLPRLASAVLPLCSQHPGQCGLFPLEKSLDAFAARYRLAEMAEHTLDVQYYIWQDDMSGRLLFSALLAAAKRGVRVRLLLDDNNTPGLDDILRLLDSHPRIEVRLFNPFSFRLLRPLGYITDFSRLNRRMHNKSFTVDGVVTLVGGRNIGDAYFGAGEEPLFSDLDVMAIGPVVEDVADDFARYWYCKSVSPLQQVLDVPEGEMADRIELPASWHNDAMTHRYLRKMESSPFINHLVDGTLPLIWAKTRLLSDDPAKGEGKAKRHSLLPQRLFDIMGSPSERIDIISSYFVPTRAGVAQLLRMVRKGVKIAILTNSLAANDVAVVHAGYARWRKKLLRYGVELYELKPTREQSSTLHDRGITGNSGASLHAKTFSIDGKTVFIGSFNFDPRSTLLNTEMGFVIESETLAQLIDKRFIQSQYDAAWQLRLDRWGRINWVDRHAKKEVILKKEPATSFWKRVMVRLASILPVEWLL	not soluble
MMKPSVSAAILAAGTSTRMNEMKQLAKIQGTYMLKYVIDQVSNHPFQHIFVIVGHQADIVMKMIQVEDKRVQWLVNDQYKQGQSTSFKLAMEQARQYGDAVMMFLADQPLIEKETVNIVLNEGITRVQEEPFIVRPMYEKKEGHPVYWGNIHALDCSAVNGDKGGKTLMEELERMLIPVHDQGVLVDVDTCEDYKKVNDLMKRKSPSTHLEHHHHHH	not soluble
MMKTLLPFFGVVRVSGEDRQTFLHGQLSNDINNLQTGQACYATYNTPKGRVIANMIVVNRGGDLLLIMAQDLLEATVKRLRMFVLRAKAVFEILEDYAVGAELEASAEPLAAQEPNLAFAAQQDSDGICSIALPHGGILRIAPKNTLPPYDAAAENAWRLHEIRSGYPWICAATKETAVAQMLNQHIIGGVHFKKGCYPGQEIIARAQYRGQVKRGLAVLSGNSAAEAGSVLAADGEEAGIVLDSVQDSENFTALAVIKFSAAQKELTVPNGGIFKAVHLFFKTENAELEHHHHHH	soluble
MMLSRAKPAVGGESPHTDKRKKKGRKIPKLEDLLSQRDFTGAITLLEFKRHVGEQEDDTNLWIGYCAFHLGDYKRALEEYENATKEENCNPEVWVNLACTYFFLGMYKQAEAAGFKAPKSRLQNRLLFHLAHKFNDEKKLMNFHQNLQDIKEDQLSLASNSEIHLPLPPECWD	not soluble
MMNYRKADMKDISLLVSIRKRQLIDEGIEPNIDIDKELTRYFNNKLANNLLVEWIAEENNQIIATAAIAFIDFPPTYTNKTGRKGYITNMYTEPTSRGNGIATGMLDRLVNEAKERNIHKICLVASKLGRPVYKKYGFQDTDEWLELNLLEHHHHHH	soluble
MMRIAVKEFLKIRRELKTLSDIRKLPYPRGTLHCILQQKKVDSVKRKYHTFAERIPEIISYWEREKKFPKWLTLPPVMKIRLLMKGMGFSAKSINKALRNPEDVVEDEKLAEQIRKAVLSDYVYSPIAARLQRARGKLGERGLAYELEKAGIEFLTEKDLKGRFSKTPDFYFEEPVEFMGEELKWIESKALFGDPRSHDLYWKKQYSKYYEMFGNGLIVYWLGCVESIEASDGSEFKNGYRTSLLDMLLYLTDSKDESYAERLNARFIEVNEQNDVLAAEKVVDAYAEGRVLAFTDRKREVARILKNMGFDVTLGQNYLTTLTANTLCHSPTANKAISLLSSLLCLINHPNLLLSAENPASLKFLLKYLFRNLLEHHHHHH	not soluble
MMRIGIIARFDVAEAVEIAERVASFLLNRGVEITVDLKLTEELPQLREYGEDIRNMDADMILTIGGDGTILRTRSLIEDKEIPILGINMGTVGFLTEVDPENVFSALEAVLRGEYAVEKRTLLSVYHNDELPSALNEVVLMTRRPAKMLHIEISVDDEVVEELRADGIIIATPSGSTAYSMSAGGPIVDPRVEAFLIVPICPFKLSARPLVVSNKSVIRVKLLRKGKKAIAVIDGQYEEEINHMDEVIFRKSERKAHFVRLSKDFYRKVREKLIEGGIDSIKG	soluble
MMSMKIFETTAPHPEASLLTAFSKNALDRFAEKRTEECVAEALKVDGTHIFAFSGNRLVLKHDEQVIDPLFSAYELAELQPDFDNAVLLGYRETGEPRIAVPVAVAEDQLASHYKLADARTLYRDHLLDEELLSEVAQAVSLTHWNADNRFCGRCGGTMEQRIGGYKRICASCSHTIFPRTDPVVIMMTIDIERDLCLLGRGAHFASGMYSCLAGFVEPGETIEQAVRRETHEESGVEIGRVRYHASQPWPMPHTLMIGCYAEALSSDIARDEIELEDCRWFTREEVAKMLEAPAGEGFSAPPIGAIAHRLMRDWVEWPE	soluble
MMVIGRLGAGKSFATKLRLVRRAMFDEDTVVIMLDPMRGFAGVNEALDGERITVGGRRGLNPLEIKPTPDHVLQEVDDIDPWGEQINWVMTFFATFFEHVADHPLGERNQTLRRAVQEAYEKRGITRDPETHTRDSPTIHDVITVLEEMVEDPEEYGYVTDGEQEAVQSDAQSLLKDLRPSFREGGELENLARPSEFDLDSKVIYLDLHQEEGTRGRAETSLMMQVLFNSVYERVKQTDKRVVFCIDEAHYLMNDAVSLDFLETAVRHSRHFDLSLEFITQTGGEFALTPEARTIANLCSLTVLHRVNEEKEKIAKWF	not soluble
MNAADDKTIVREYFNSTGFDRWKRIYGDGEVNKVQLDIRNGHQQTVDSVIGWLKNDGNLAELSICDAGCGVGSLSIPLATEGAKVYASDISEKMVEEGKQRALETLGNAENPTFAVQDLESLSGSYHTVICLDVLIHYPQEKADEMISHLCSLAQSRIILSFAPKTCALTLLKKIGSFFPGPSKTTRAYLHREADVIKILESNGFAIQRKEFTKTRFYFSRILEATRSLEHHHHHH	soluble
MNAATLVDTHAVDTALQEAFEAAPEGFALFDAEDRCVIWNARYGELWSKWGVTLAVGATFESLLLAGLAAGRFPEANGDRAAWLAHQLGRRKLDRIEEIREEFGEYLRFESRRTPAGGLITTCANLTNLRRREAQALAARSFLDTIVENTPAMLFVKDGDTGAFLLVNRAAENQLGVPRAELLGKSDYDFFPKEQADAFAADDRRVIASGKLVTIDEEPLDTPHNGRRWLQTRKIAIPGEDGRRHLLVICEDITERKAGAAALAEALQKAEAGSVAKSEFLANMSHEIRTPLNGVIGMAEVLSRTALDDAQREMMEVILNSGRALNLLLSDILDLSKIEAGGLELSRDPLDLREAITAAVAVFKAVAESKGLVFRLTFADDFHDHVLGDALRVRQIVANLTSNAVKFTTAGSVIIEARTLVAEDGRIDLTVSVQDTGEGFDEDSADRLFERFQQADGSVTRKVGGTGLGLPIARRLARLMDGEISCVAHPGEGATFVFEALFLADGQRTPAASADPAGELALDRRLRVLLAEDHPTNQKVIGLMLADAADVTVAEDGQAAVEAFEKHAYDVVLMDTQMPVMDGLAAIAEIRRREREAQARRTPIISLTANAMPHQVRACLEAGADLHLAKPVSIQGLFATLGAALETRPGGEGLEHHHHHH	not soluble
MNANIMLNEDITPIGSDYDTVRGVIELLTLDYREQPSLEAIAARLGQSPTQLQKTFTRWAGLSPKAFLQAVTLDHAKRLLREEDLPLLETSIEVGMSGPGRLHDLFVTHEAMSPGEWKAKGGGLTIRYGFHASPFGLALVMITDRGLAGCAFADPGDERACFEDMAGRWPNADYVEDREATAPYAARIFEPAMWTADKPLRVVLLGTDFQVRVWKSLLKIPMGRAVTYSNIACDIGQPTASRAVGAAVGANPVSFVVPCHRAVGKSGALTGYHWGLTRKRAMLGWETGKALEHHHHHH	not soluble
MNAQIKIINTANGYMALCQDTPEDITPAWFSVDFWREKSAVVGSSKGRYTTWFVAFEHSHWVLRHYWRGGMMEKFSKDAYFYTGLENTRAMGELRLLDALYREQFAVPKPIAANIVRDGLFYRADIIIERVDGAEDLVAKLTKGTMTQAQWHALGATIAQFHRRGVYHADLNAKNILWQPQQTDSAQERFYLIDFDRGELKTPNAKWQKANLDRLLRSFNKEQGKQPTLAFTPANWAALLEGYHAVVPKVAAALEHHHHHH	soluble
